PMC5012548

B1: apMNK2F (ssDNA)
DNA: GCGGATGAAGACTGGTGTGGGGTGGGCGGGCGGGGGTGGGGGTGGTATGGCGCGTTGGCCCTAAATACGAGCAAC
B2: apMNK3R (ssDNA)
DNA: GTTGCTCGTATTTAGGGCGGGGGTGGGCGGATTTCGCAGGTGGCGTGTACACCAGTCTTCATCCGC
B3: apMNK1F (ssDNA)
DNA: GCGGATGAAGACTGGTGTACACGCCGAACCCATTGTTCCAGGCGACATGCCCTAAATACGAGCAAC
B4: apMNK4R (ssDNA)
DNA: GTTGCTCGTATTTAGGGCACACACGACGAAGACCTGGCTGCCCGTTGTACACCAGTCTTCATCCGC
B5: apMNK3F (ssDNA)
DNA: GCGGATGAAGACTGGTGTACACGCCACCTGCGAAATCCGCCCACCCCCGCCCTAAATACGAGCAAC
B6: apMNK4F (ssDNA)
DNA: GCGGATGAAGACTGGTGTACAACGGGCAGCCAGGTCTTCGTCGTGTGTGCCCTAAATACGAGCAAC

Key:
[1] = target: GST-MNK1b (human, UniProt Q9BUB5-3 1-347); test: ELONA
[2] = target: T1, His-MNK1b (rMNK1b) (UniProt Q9BUB5-3 1-347); test: Ni-NTA pull-down with qPCR
[3] = target: T1, His-MNK1b (rMNK1b); test: ELONA

Binder	Kd [1]	binding result [2]	binding result [3]
B1	1.79 ± 0.48 nM		
B2	6.36 ± 1.72 nM		
B3		binds	
B4		binds	
B5			binds
B6			binds
